The results in this text go back to US20080280824A1, “COMPOSITIONS AND METHODS FOR TREATMENT OF CANCER OR NEURODEGENERATIVE DISEASE WITH PEPTIDE BASED MICROTUBULE STABILIZERS OR INHIBITORS” (University of Washington, priority 2007, published 2008).

Entries after “also recorded” stand apart in the source; their conditions may differ.

Experiment [1] addresses T1, Bovine brain tubulin (Bos taurus, UniProt P81947+Q6B856).
T1 construct: Bovine brain tubulin was dissolved to 200 μM; purchased Cytoskeleton; Denver, Colo; host or cells: bovine brain
Put plainly: Microtubule assembly assay (DAPI fluorescence, Microtubule Stabilization/Destabilization Assay kit). In kind it is biochemical. The following applies: for effect on total microtubule assembly / amount of microtubules formed in 45 minutes / effect on rate of microtubule assembly: peptide or control molecule. Here is the method: Microtubule assembly assays. The effect of selected αB crystallin peptides on the in vitro assembly of tubulin into microtubules was evaluated using the Microtubule Stabilization/Destabilization Assay kit (Cytoskeleton; Denver, Colo.) as described previously. Bonne et al., J Biol Chem 260:2819-25, 1985. Bovine brain tubulin was dissolved to 200 μM in 80 mM PIPES, 2 mM MgCl2, 0.5 mM EGTA, 10 μM DAPI, 1 mM GTP pH 6.9. 8.5 μl of the tubulin was mixed with 40 μl of 80 mM PIPES, 2 mM MgCl2, 0.5 mM EGTA, 7.4 μM DAPI, 16% Glycerol, 1.1 mM GTP pH 6.9 and 4.3 μl of 2 mM peptide in 2.5% DMSO, 2 mM Paclitaxel (polymerization promoter) in 100% DMSO, 15 mM CaCl2 (polymerization inhibitor) in water, or 2.5% DMSO only. Microtubule assembly was monitored by measuring the fluorescence of DAPI, a molecule whose emission fluorescence at λ=460 is enhanced 8-fold when it is incorporated into assembled microtubules. Bonne et al., J Biol Chem 260:2819-25, 1985. Fluorescence of samples were continuously read on a Perkin Elmer Victor^3 V fluorescence plate reader (Excitation λ=355 nm, Emission λ=460 nm) at 37° C. for 45 minutes.
The effect of wt and three mutant αB crystallins, Δ41-58, αAβ8, and Δ155-165 on the in vitro assembly of tubulin into microtubules was evaluated using the Microtubule Stabilization/Destabilization Assay kit described above (Cytoskeleton; Denver, Colo.). Bovine brain tubulin was dissolved to 200 μM in 80 mM PIPES, 2 mM MgCl2, 0.5 mM EGTA, 10 μM DAPI, 1 mM GTP pH 6.9. 8.5 μl of the tubulin was mixed with 40 μl of 80 mM PIPES, 2 mM MgCl2, 0.5 mM EGTA, 7.4 μM DAPI, 16% Glycerol, 1.1 mM GTP pH 6.9 and 4.3 μl of 80 μM protein in 20 mM Tris-Cl, pH8.0 or Tris-Cl buffer only. Fluorescence of samples were continuously read on a Perkin Elmer Victor^3 V fluorescence plate reader (Excitation λ=355 nm, Emission λ=460 nm) at 37° C. for 45 minutes.

A further experiment has as its system pre-formed microtubules. Put plainly: Microtubule disassembly assay (DAPI fluorescence). In kind it is biochemical, Bovine. The settings on record: 23° C., 20 minutes; for effect on microtubule disassembly / inhibition of microtubule disassembly: peptide 170 μM, 34 μM pre-formed microtubules; for effect on microtubule disassembly (words), vs absence of αB crystallin: wt or mutant αB crystallin (6.8 μM and 34 μM), 34 μM microtubules. Here is the method:
Microtubule disassembly assays. The effect of αB crystallin peptides and mutants on the in vitro disassembly of microtubules into soluble tubulin was evaluated using the Microtubule Stabilization/Destabilization Assay kit described above (Cytoskeleton; Denver, Colo.) as described previously^36. 34 μM pre-formed microtubules were incubated with the αB crystallin peptides (170 μM) or wt and mutant αB crystallins (6.8 μM and 34 μM) at 23° C. for 20 minutes. Incubation of microtubules at 23° C. results in the spontaneous disassembly of microtubules. The decrease in DAPI fluorescence at λ=460 nm was measured continuously for 20 minutes by exciting the samples at λ=355 nm using a Perkin Elmer Victor^3 V fluorescence plate reader.

Experiment [2] concerns Bovine brain tubulin. Put plainly: Tubulin thermal aggregation assay (absorbance at 340 nm). Format: biochemical. The settings on record: 52° C., 60 minutes; for effect on thermal aggregation of tubulin: synthetic peptide, 34 μM tubulin. Here is the method: Tubulin aggregation assays. The effect of αB crystallin peptides and mutants on the thermal aggregation of tubulin was evaluated using ultra-violet spectroscopy. Bovine brain tubulin was dissolved to 200 μM in 80 mM PIPES, 2 mM MgCl2, 0.5 mM EGTA, pH 6.9. 4.25 μl of 0.08, 0.4, or 2 mM test peptide or protein was diluted into 40 μl of 80 mM PIPES, 2 mM MgCl2, 0.5 mM EGTA, pH 6.9. 8.5 μl of the 200 μM tubulin was added to each sample. Samples were heated at 52° C. and the absorbance at λ=340 nm was measured continuously for 60 minutes using a Pharmacia Biotech Ultrospec 3000. GTP and glycerol were not present in the samples because they induce the assembly of microtubules.

Setting [3] is: 34 μM tubulin, 37° C., 45 minutes, vs tubulin alone.
The mark [4] stands for this setting: 34 μM tubulin, 37° C., vs tubulin alone.

T1 sequence (P81947 whole entry): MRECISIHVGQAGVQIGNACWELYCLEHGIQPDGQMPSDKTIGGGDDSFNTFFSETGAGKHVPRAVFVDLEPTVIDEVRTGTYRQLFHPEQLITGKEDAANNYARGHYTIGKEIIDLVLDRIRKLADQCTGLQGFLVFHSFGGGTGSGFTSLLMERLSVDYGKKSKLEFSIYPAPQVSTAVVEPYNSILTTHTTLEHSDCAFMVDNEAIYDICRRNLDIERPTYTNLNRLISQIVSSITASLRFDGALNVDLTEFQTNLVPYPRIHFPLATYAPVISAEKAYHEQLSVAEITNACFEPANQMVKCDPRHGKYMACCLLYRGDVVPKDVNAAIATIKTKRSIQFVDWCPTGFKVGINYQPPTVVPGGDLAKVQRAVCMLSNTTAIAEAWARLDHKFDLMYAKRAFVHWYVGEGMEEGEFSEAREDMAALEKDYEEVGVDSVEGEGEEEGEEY
T1 sequence (Q6B856 whole entry): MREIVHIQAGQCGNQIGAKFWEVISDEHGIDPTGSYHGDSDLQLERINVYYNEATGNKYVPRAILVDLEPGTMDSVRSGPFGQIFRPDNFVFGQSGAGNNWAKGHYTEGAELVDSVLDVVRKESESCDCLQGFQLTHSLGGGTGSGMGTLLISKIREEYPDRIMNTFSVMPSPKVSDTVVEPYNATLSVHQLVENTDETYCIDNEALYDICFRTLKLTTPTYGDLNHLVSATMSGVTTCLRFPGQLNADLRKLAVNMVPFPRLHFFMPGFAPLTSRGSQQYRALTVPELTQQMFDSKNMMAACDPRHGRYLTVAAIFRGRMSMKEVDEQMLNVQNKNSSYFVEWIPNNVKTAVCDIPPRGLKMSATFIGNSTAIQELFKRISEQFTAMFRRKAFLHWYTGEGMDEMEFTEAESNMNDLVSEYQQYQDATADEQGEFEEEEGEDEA

For the compound `[Ca+2].[Cl-].[Cl-]` [CaCl2, reference compound], the “effect on total microtubule assembly / amount of microtubules formed in 45 minutes” value on Bovine brain tubulin [1] (setting [3]) is “inhibited microtubule assembly”.

`CC(=O)O[C@H]1C(=O)[C@@]2(C)[C@H]([C@H](OC(=O)c3ccccc3)[C@]3(O)C[C@H](OC(=O)[C@H](O)[C@@H](NC(=O)c4ccccc4)c4ccccc4)C(C)=C1C3(C)C)[C@]1(OC(C)=O)CO[C@@H]1C[C@@H]2O` [Paclitaxel, reference compound]: at Bovine brain tubulin [1] (setting [4]), the “effect on rate of microtubule assembly” value was “accelerated microtubule assembly”.

In the case of DRFSVNLDVKHFS, the “effect on total microtubule assembly / amount of microtubules formed in 45 minutes” value with Bovine brain tubulin [1] (setting [3]) is on record as “no effect; also recorded: without an effect”; with Bovine brain tubulin [1] (34 μM tubulin, 37° C., 45 minutes, vs tubulin alone, listed as 73DRFSVNLDVKHFS85) it was “no effect; also recorded: little or no effect”. Moreover, the “effect on rate of microtubule assembly” value with Bovine brain tubulin [1] (setting [4]) is “accelerated microtubule assembly; also recorded: increased”. Also, the “effect on microtubule disassembly” value with pre-formed microtubules is “no effect”; in the experiment with pre-formed microtubules (listed as 73DRFSVNLDVKHFS85), “little or no effect”. Further, in the experiment with Bovine brain tubulin [2], the “effect on thermal aggregation of tubulin” value was “no effect”.

As for “ERTIPITRE [synthetic peptide of human αB crystallin C-terminal extension, residues 156-164]”, the “effect on total microtubule assembly / amount of microtubules formed in 45 minutes” value with Bovine brain tubulin [1] (setting [3]) is recorded as “increased”; with Bovine brain tubulin [1] (34 μM tubulin, 37° C., 45 minutes, vs tubulin alone, listed as 155ERTIPITRE165), “promote microtubule assembly”; with Bovine brain tubulin [1] (34 μM tubulin, 37° C., 45 minutes, vs tubulin alone, listed as 156ERTIPITRE164) it was “promote microtubule assembly”. The “effect on rate of microtubule assembly” value with Bovine brain tubulin [1] (setting [4]) was “increased”. For the same compound, the “effect on microtubule disassembly” value in the experiment on pre-formed microtubules is given as “decreased”; in the experiment on pre-formed microtubules (listed as 156ERTIPITRE164), “inhibit microtubule disassembly”. Further, the “inhibition of microtubule disassembly” value in the experiment on pre-formed microtubules is approximately 36%. In the experiment on Bovine brain tubulin [2], the “effect on thermal aggregation of tubulin” value is on record as “decreased”.

For FISREFHR, the “effect on total microtubule assembly / amount of microtubules formed in 45 minutes” value with Bovine brain tubulin [1] (setting [3]) is reported as “decreased the amount of microtubules formed; also recorded: inhibited”; with Bovine brain tubulin [1] (34 μM tubulin, 37° C., 45 minutes, vs tubulin alone, listed as 113FISREFHR120), “inhibited microtubule assembly”. The “effect on rate of microtubule assembly” value in the experiment with Bovine brain tubulin [1] (setting [4]) is given as “slowed microtubule assembly”. Further, the “decrease of microtubule assembly” value with Bovine brain tubulin [1] (synthetic peptide (4.3 μl of 2 mM), 34 μM tubulin, 37° C., 45 minutes, vs tubulin alone) was “approximately 45%”. Besides, the results for the “effect on microtubule disassembly” value in the experiment with pre-formed microtubules and with pre-formed microtubules (listed as 113FISREFHR120) were “decreased” and “inhibited”, respectively. Moreover, the “inhibition of microtubule disassembly” value in the experiment with pre-formed microtubules is reported as approximately 24%. The “effect on thermal aggregation of tubulin” value with Bovine brain tubulin [2] was “decreased”; in the experiment with Bovine brain tubulin [2] (listed as 113FISREFHR120), “protected”.

In the case of LTITSSLSSDGV, the “effect on total microtubule assembly / amount of microtubules formed in 45 minutes” value in the experiment with Bovine brain tubulin [1] (setting [3]) is on record as “increased”; with Bovine brain tubulin [1] (34 μM tubulin, 37° C., 45 minutes, vs tubulin alone, listed as 131LTITSSLSSDGV142), “promote microtubule assembly”. Also, the “effect on rate of microtubule assembly” value with Bovine brain tubulin [1] (setting [4]) is given as “increased”. The “effect on microtubule disassembly” value with pre-formed microtubules is on record as “no effect”; in the experiment with pre-formed microtubules (listed as 131LTITSSLSSDGV142), “inhibit microtubule disassembly”. Moreover, the “effect on thermal aggregation of tubulin” value in the experiment on Bovine brain tubulin [2] was “decreased”; in the experiment on Bovine brain tubulin [2] (listed as 131LTITSSLSSDGV142) it was “protected”.

For STSLSPFYLRPPSFLRAP, the “delay of initiation of microtubule assembly relative to tubulin alone” value with Bovine brain tubulin [1] (34 μM tubulin, 37° C.) is reported as “approximately 5 minutes”. Moreover, the “effect on total microtubule assembly / amount of microtubules formed in 45 minutes” value with Bovine brain tubulin [1] (setting [3]) is listed as “no effect; also recorded: no change”; with Bovine brain tubulin [1] (34 μM tubulin, 37° C., 45 minutes, vs tubulin alone, listed as 41STSLSPFYLRPPSFLRAP58) it was “no effect; also recorded: little or no effect”. Besides, in the experiment with Bovine brain tubulin [1] (setting [4]), the “effect on rate of microtubule assembly” value is on record as “slowed the rate of microtubule assembly”. Moreover, the entries for the “effect on microtubule disassembly” value in the experiment on pre-formed microtubules and in the experiment with pre-formed microtubules (listed as 41STSLSPFYLRPPSFLRAP58) were “no effect” and “little or no effect”, respectively. Moreover, in the experiment with Bovine brain tubulin [2], the “effect on thermal aggregation of tubulin” value is listed as “small protective effect”.

With “wt αB crystallin: wild-type full-length human αB crystallin, small heat shock protein and molecular chaperone, expressed and purified”, the “effect on microtubule assembly (words)” value in the experiment with Bovine brain tubulin [1] (high αB crystallin concentrations, tubulin:αB crystallin ratios <1:4) was “inhibited”; with Bovine brain tubulin [1] (molar ratios of tubulin to αB crystallin <1:2), “inhibited microtubule assembly”; with Bovine brain tubulin [1] (molar ratios of tubulin to αB crystallin between 4:1 and 1:2), “favored the assembly of additional microtubules; also recorded: promoted”; in the experiment with Bovine brain tubulin [1] (ratio of tubulin to αB crystallin >4:1), “minimal”; with Bovine brain tubulin [1] (ratio of tubulin to αB crystallin >4:1, listed as αB crystallin), “little or no effect”. The “microtubule assembly” value with Bovine brain tubulin [1] (ratio of tubulin to αB crystallin 1:10) was “no microtubules were formed; also recorded: undetectable”. In addition, the “amount of microtubules formed less than tubulin alone” value with Bovine brain tubulin [1] (ratio of tubulin to αB crystallin <1:2, 34 μM tubulin) is recorded as 30-63%. Besides, the “microtubule assembly, normalized (absence of αB crystallin = 1.0)” value in the experiment with Bovine brain tubulin [1] (ratios <1.4, FIG. 5) is reported as less than 1; with Bovine brain tubulin [1] (ratios between 4:1 and 1.2, FIG. 5), more than 1.0; in the experiment with Bovine brain tubulin [1] (tubulin to αB crystallin ratios >4:1, FIG. 5), 1.0. The “effect on microtubule assembly, vs absence of αB crystallin” value with Bovine brain tubulin [1] (wt or mutant αB crystallin protein, tubulin alone normalized to 1.0) is reported as “increased”. Also, in the experiment with Bovine brain tubulin [1] (αB crystallin protein (4.3 μl of 80 μM), 34 μM tubulin, 37° C., 45 minutes), the “increase of microtubule assembly” value is listed as approximately 41%. Moreover, the “effect on microtubule disassembly (words), vs absence of αB crystallin” value in the experiment on pre-formed microtubules is listed as “unchanged”; in the experiment with pre-formed microtubules (listed as Wt αB crystallin), “no effect”. The “decrease of thermal aggregation of tubulin (protection)” value with Bovine brain tubulin [2] (full-length αB crystallin protein) was 65%. In the experiment on Bovine brain tubulin [2] (wt or mutant αB crystallin protein), the “effect on tubulin aggregation, vs absence of αB crystallin” value was “decreased”.
